This is an account of results in doi:10.1101/481754, “Tumor Protein D54 is a promiscuous Rab effector” (bioRxiv, 2018).

This experiment deals with T1, MBP-TPD54-His (human, UniProt O43399 1-206).
T1 construct: human Tumor protein D54 (TPD54/TPD52L2) inserted in the pMalPre-His vector; also called recombinant MBP-TPD54-His; source: E. coli BL21, purified (HisTrap); not shown: MBP, N-terminal, kept; His, C-terminal, kept
Kind of experiment: pull-down; 3 µM GST, GST-Rab1a or GST-Rab6a pre-loaded with 300 µM GppNHp, incubated with 3 µM MBP-TPD54-His 90 min at 20 °C in 25 mM HEPES, 150 mM KCl, 5 mM MgCl2 pH 7.4; glutathione-sepharose beads; Coomassie gel. To be noted: both partners purified.

T1 sequence (O43399 whole entry): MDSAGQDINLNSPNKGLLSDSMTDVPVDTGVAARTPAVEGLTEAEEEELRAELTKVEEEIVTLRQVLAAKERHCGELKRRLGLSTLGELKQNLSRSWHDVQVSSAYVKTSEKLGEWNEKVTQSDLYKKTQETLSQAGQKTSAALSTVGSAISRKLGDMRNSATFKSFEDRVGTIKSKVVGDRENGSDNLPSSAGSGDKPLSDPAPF

B1: GST-Rab1a (natural protein)
chain: not shown
notes: human Rab1a, cut from GFP-Rab1a and inserted into pGEX-6P1; pre-loaded with GDP or GppNHp; source: E. coli BL21, purified (GSTrap); not shown: GST, N-terminal, kept
Regarding B1, the binding result is on record as “binds”.
